Results: EP4534554A1 (Corregene Biotechnology Co., Ltd., dated 2025)
Numbering of substitutions follows the chain as printed. Where two headings read alike, the source gives them in different places.

T1: MAGE-A1 peptide on HLA-A*02:01 (human)
T1 peptide: KVLEYVIKV

B1: ht27M1170 (TCR, V domains shown)
Valpha: GEDVEQSLFLSVREGDSSVINCTYTDSSSTYLYWYKQEPGAGLQLLTYIFSNMDMKQDQRLTVLLNKKDKHLSLRIADTQTGDSAIYFCAGSGGGTDKLIFGTGTRLQVFP
Vbeta: GAVVSQHPSWVICKSGTSVKIECRSLDFQATTMFWYRQFPKQSLMLMATSNEGSKATYEQGVEKDKFLINHASLTLSTLTVTSAHPEDSSFYICHAREPGQGPYEQYFGPGTRLTVT
B2: ht27M1436 (TCR, V domains shown)
Valpha: B1 Valpha with I49T, S51W, N52F
Vbeta: B1 Vbeta with H95S
B3: ht27M1381 (TCR, V domains shown)
Valpha: B1 Valpha with T25V, S27P, S28Y
Vbeta: B1 Vbeta with H95S
B4: ht27M1365 (TCR, V domains shown)
Valpha: B1 Valpha with N52F, M53T, D54Y
Vbeta: B1 Vbeta with H95S
B5: ht27M1398 (TCR, V domains shown)
Valpha: B1 Valpha
Vbeta: B1 Vbeta with S50T, E52L, G53P, H95S
B6: ht27M1360 (TCR, V domains shown)
Valpha: B1 Valpha with S51G, N52F, M53D, D54T
Vbeta: B1 Vbeta with H95S
B7: ht27M1245 (TCR, V domains shown)
Valpha: B1 Valpha with S29Q
Vbeta: B1 Vbeta with H95S
B8: ht27M1401 (TCR, V domains shown)
Valpha: B1 Valpha
Vbeta: B1 Vbeta with S50T, N51Q, E52P, G53L, H95S
B9: ht27M1226 (TCR, V domains shown)
Valpha: B1 Valpha with S28L
Vbeta: B1 Vbeta with H95S
B10: ht27M1414 (TCR, V domains shown)
Valpha: B1 Valpha with I49T, F50W, S51P, N52H
Vbeta: B1 Vbeta with H95S
B11: A1A2-M01-626 (TCR, V domains shown)
Valpha: B1 Valpha with T25P, S27M, S28F, S51A, N52F, D54Q
Vbeta: B1 Vbeta with Q29P, A30I, T31E, T32R, S50T, N51D, E52Y, H95S, Y104F
B12: ht27M1285 (TCR, V domains shown)
Valpha: B1 Valpha with N52F
Vbeta: B1 Vbeta with H95S
B13: ht27M1243 (TCR, V domains shown)
Valpha: B1 Valpha with S29L
Vbeta: B1 Vbeta with H95S
B14: ht27M1374 (TCR, V domains shown)
Valpha: B1 Valpha with S28T, S29D, T30I, Y31L
Vbeta: B1 Vbeta with H95S
B15: ht27M1378 (TCR, V domains shown)
Valpha: B1 Valpha with T25A, S27Y, S28L
Vbeta: B1 Vbeta with H95S
B16: ht27M1240 (TCR, V domains shown)
Valpha: B1 Valpha with S29M
Vbeta: B1 Vbeta with H95S
B17: ht27M1002 (TCR, V domains shown)
Valpha: B1 Valpha
Vbeta: B1 Vbeta with H95S, Q101G
B18: ht27M1557 (TCR, V domains shown)
Valpha: B1 Valpha
Vbeta: B1 Vbeta with H95S, G102E, P103H, Y104L, E105I
B19: ht27M1369 (TCR, V domains shown)
Valpha: B1 Valpha with S51A, N52F, M53E, D54S
Vbeta: B1 Vbeta with H95S
B20: ht27M1363 (TCR, V domains shown)
Valpha: B1 Valpha with S51N, N52T, M53Q
Vbeta: B1 Vbeta with H95S
B21: A1A2-M01-619 (TCR, V domains shown)
Valpha: B1 Valpha with S29M, N52F
Vbeta: B1 Vbeta with Q29E, S50T, N51D, E52Y, H95S
B22: A1A2-M01-612 (TCR, V domains shown)
Valpha: B1 Valpha with T25V, S27P, S28Y, N52F
Vbeta: B1 Vbeta with Q29E, H95S, G100W, Q101D, G102P, P103W
B23: ht27M1457 (TCR, V domains shown)
Valpha: B1 Valpha
Vbeta: B1 Vbeta with S50T, N51D, E52Y, H95S
B24: ht27M1290 (TCR, V domains shown)
Valpha: B1 Valpha
Vbeta: GAVVSQHPSWVICKSGTSVKIECRSLDFQATTMFWYRQFPKQSLMLMATSNEGSKATYEQGVEKDKFLINHASLTLSTLTVTSAHPEDSSFYICSARVNDGTYEQYFGPGTRLTVT
B25: ht27M1387 (TCR, V domains shown)
Valpha: B1 Valpha
Vbeta: B1 Vbeta with Q29P, A30I, T31E, T32R, H95S
B26: ht27M1362 (TCR, V domains shown)
Valpha: B1 Valpha with S51I, N52F, M53Q, D54Y
Vbeta: B1 Vbeta with H95S
B27: A1A2-M01-613 (TCR, V domains shown)
Valpha: B1 Valpha with S29L, N52F
Vbeta: B1 Vbeta with S50T, N51D, E52Y, H95S, Y104W
B28: ht27M1003 (TCR, V domains shown)
Valpha: B1 Valpha
Vbeta: B1 Vbeta with H95S, Q101S
B29: ht27M1418 (TCR, V domains shown)
Valpha: B1 Valpha with I49G, F50T, S51W, N52L
Vbeta: B1 Vbeta with H95S

Assays:
[1] = biological target: MAGE-A1 target antigen peptide … presented by HLA-A*02:01 on cells (human); assay: cell-based or functional assay; design: EC50 Enhancement Factor: unit not given beside the values
[2] = biological target: T1, MAGE-A1 peptide on HLA-A*02:01; assay: JKR9 reporter + peptide-loaded T2, 16 h; full-length, on cells
[3] = biological target: MAGE-A1 target antigen peptide … presented by HLA-A*02:01 on cells (human); assay: cell-based or functional assay
[4] = biological target: T1, MAGE-A1 peptide on HLA-A*02:01; assay: JKR9 reporter + peptide-loaded T2, 16 h; full-length, on cells
[5] = biological target: MAGE-A1 Dextramer (human); assay: MAGE-A1 Dextramer gradient staining (MFI) of cells expressing the TCR, flow cytometry
[6] = biological target: MAGE-A1 Dextramer (human); assay: KD-SPR estimated from Dextramer staining MFI by the linear formula of Figure 6; not measured by SPR
[7] = biological target: T1, MAGE-A1 peptide on HLA-A*02:01; assay: MAGE-A1 Dextramer gradient on transduced JKR9; unit inferred; full-length, on cells
[8] = biological target: T1, MAGE-A1 peptide on HLA-A*02:01; assay: KD-SPR estimated from Dextramer MFI by the formula calibrated on gp100 TCRs, not measured; unit inferred; full-length, on cells

Row | Binder | EC50 Enhancement Factor [1] | EC50 Value (M), JKR9 reporter activation by peptide-loaded T2 cells [1] [M] | EC50 of peptide [2] [nM] | also measured
1 | B1 | 39 | 4.25e-07 | 425 | –
2 | B2 | 82.8 | 2.02e-07 | 202 | –
3 | B3 | 131 | 1.28e-07 | 128 | –
4 | B4 | 165 | 1.01e-07 | 101 | –
5 | B5 | 316 | 5.28e-08 | 52.8 | –
6 | B6 | 277 | 6.04e-08 | 60.4 | –
7 | B7 | 30 | 5.54e-07 | 554 | –
8 | B8 | 184 | 9.05e-08 | 90.5 | –
9 | B9 | 28 | 5.88e-07 | 588 | –
10 | B10 | 739 | 2.25e-08 | 22.5 | –
11 | B11 | – | – | – | EC50 Value (M), JKR9 reporter activation by peptide-loaded T2 cells [3]: 2.26e-08 M; EC50 of peptide [4]: 22.6 nM
12 | B12 | 281 | 5.93e-08 | 59.3 | –
13 | B13 | 56 | 2.98e-07 | 298 | –
14 | B14 | 153 | 1.09e-07 | 109 | –
15 | B15 | 225 | 7.4e-08 | 74 | –
16 | B16 | 151 | 1.1e-07 | 110 | –
17 | B17 | 12 | 1.36e-06 | 1360 | –
18 | B18 | 1120 | 1.49e-08 | 14.9 | –
19 | B19 | 218 | 7.66e-08 | 76.6 | –
20 | B20 | 261 | 6.4e-08 | 64 | –
21 | B21 | – | – | – | EC50 Value (M), JKR9 reporter activation by peptide-loaded T2 cells [3]: 2.74e-08 M; EC50 of peptide [4]: 27.4 nM
22 | B22 | – | – | – | EC50 Value (M), JKR9 reporter activation by peptide-loaded T2 cells [3]: 2.3e-08 M; EC50 of peptide [4]: 23 nM; EC50 [5]: 0.0475 nM; Kd [6]: 0.00294 nM; EC50 of Dextramer staining [7]: 0.0475 nM; Kd [8]: ~0.00294 nM
23 | B23 | 352 | 4.73e-08 | 47.3 | –
24 | B24 | 711 | 3.24e-08 | 32.4 | –
25 | B25 | 131 | 1.28e-07 | 128 | –
26 | B26 | 419 | 3.99e-08 | 39.9 | –
27 | B27 | – | – | – | EC50 Value (M), JKR9 reporter activation by peptide-loaded T2 cells [3]: 2.62e-08 M; EC50 of peptide [4]: 26.2 nM; EC50 [5]: 0.0961 nM; Kd [6]: 0.0338 nM; EC50 of Dextramer staining [7]: 0.0961 nM; Kd [8]: ~0.0338 nM
28 | B28 | 14 | 1.17e-06 | 1170 | –
29 | B29 | 1650 | 1.01e-08 | 10.1 | –
